# Experimental data: patent US20040067880A1 (priority 2002, published 2004)
# B1: CD: recombinant Escherichia coli cytosine deaminase with 6 histidine residues at the C-terminus (protein, UniProt P25524 2-427, looked up)
# Cytosine deaminase: SNNALQTIINARLPGEEGLWQIHLQDGKISAIDAQSGVMPITENSLDAEQGLVIPPFVEPHIHLDTTQTAGQPNWNQSGTLFEGIERWAERKALLTHDDVKQRAWQTLKWQIANGIQHVRTHVDVSDATLTALKAMLEVKQEVAPWIDLQIVAFPQEGILSYPNGEALLEEALRLGADVVGAIPHFEFTREYGVESLHKTFALAQKYDRLIDVHCDEIDDEQSRFVETVAALAHHEGMGARVTASHTTAMHSYNGAYTSRLFRLLKMSGINFVANPLVNIHLQGRFDTYPKRRGITRVKEMLESGINVCFGHDDVFDPWYPLGTANMLQVLHMGLHVCQLMGYGQINDGLNLITHHSARTLNLQDYGIAAGNSANLIILPAENGFDALRRQVPVRYSVRGGKVIASTQPAQTTVYLEQPEAIDYKR
# modifications: C-terminal His6 tag
# notes: recombinant Escherichia coli cytosine deaminase with 6 histidine residues at the C-terminus
# How the values were obtained:
# [1] = molecular target: CS receptor on human cells (HepG2 hepatoma cells; human liver metastases of colorectal cancer) (human); experiment: indirect immunofluorescence on frozen sections of human liver MCC from six patients
# [2] = molecular target: CS receptor on human cells (HepG2 hepatoma cells; human liver metastases of colorectal cancer) (human); experiment: cell-based or functional assay
# [3] = molecular target: CS receptor on mouse colorectal carcinoma MCA26 cells (mouse); experiment: cell-based or functional assay
# [4] = molecular target: CS receptor on rat cells (rat liver sections; rat hepatoma H4IIE) (rat); experiment: cell-based or functional assay
# [5] = Cytosine deaminase enzymatic activity assay (conversion of [3H]cytosine to [3H]uracil); type: biochemical; settings: purified recombinant protein
# Protocol: Crude cell extracts were prepared by sonicating cells in a buffer (50 mM Na phosphate, pH 7.8 and 0.3 M NaCl) followed by centrifugation. Cytosine deaminase activity was determined by measuring the production of uracil in a reaction mixture (50 μl) containing 5 mM, 6-[^3H]cytosine (0.45 Ci/mol), 50 mM Tris-HCl pH 7.8, 1 mM DTT, 1 mM EDTA and cellular crude extract (10-20 μg/ml) or eluted fractions. After 1-2 hour of incubation at 37° C., 10 μl aliquots were withdrawn and analyzed by thin layer chromatography (Silica Gel 60, Selecto Scientific, Norcross, Ga.). Chromatograms were developed in 1-butanol /water (86/14, v/v). Positions of cytosine and uracil were identified by […]. The corresponding spots for cytosine and uracil were cut out and radioactivities were determined in a scintillation counter. In some cases, 6-[3H] 5-FC (4.0 Ci/mmol) was used as a substrate in the assay.
# [6] = test system: HepG2 cells; type: cell-based, human; settings: HepG2, 0.64 μM protein 4 hrs, 1 mM 5-FC, viability after 4 days
# [7] = test system: HL60 cells; experiment: Cytotoxicity assay with 5-FC in HL60 cells; type: cell-based; settings: HL-60, 0.64 μM protein 4 hrs, protein removed (washed), 1 mM 5-FC
# [8] = test system: HepG2 cells; experiment: Persistent effect on 5-FC cell killing of HepG2 cells; type: cell-based, human; settings: HepG2, 0.5 μM protein 4 hrs, then 5-FC at intervals
# Protocol: FIG. 7. Persistent effect of CD-CS on cell killing of HepG2 cells. HepG2 cells were treated with 0.8 μM of CD-CS or with CD as a control for 4 hr. Cells was washed with fresh medium and cultured in the regular medium. Cultures were split once every 6 days. At different time intervals, cells were treated with 1 mM 5-FC. Cell viability was counted 4 days thereafter. Each point represents an average of three independent experiments.
# HepG2 cells were treated with 0.5 μM of CD-CS or CD for 4 hrs and the recombinant proteins were removed from the medium and the cells were maintained in fresh medium thereafter. At different time intervals, cells were treated with 5-FC. Sustained cell killing was observed even 28 days after the removal of the recombinant protein (FIG. 7).
molecule,measurement,setting,value
full-length recombinant CS protein (malarial circumsporozoite protein) (from UniProt P19597 27-396) (ligand),positive staining cells,[1],> 90%
"CD-CS fusion protein (cytosine deaminase fused to repeat-deleted malarial circumsporozoite protein, encoded by pCD5-73.15.5) (from UniProt P19597 27-29; P25524 2-427; P19597 30-396)","LD50 of CD-CS-mediated cell killing, HepG2",[2],0.22 µM
same,"LD50 of CD-CS-mediated cell killing, MCA26",[3],0.22 µM
same,"LD50 of CD-CS-mediated cell killing, rat hepatoma H-4-II-E",[4],0.22 µM
B1,"specific activity, conversion of [3H]cytosine to [3H]uracil",[5],"3,308 nmol/min/mg protein"
same,sensitivity of protein-treated cells to 5-FC,[6]; unwashed,sensitive
same,sensitivity of protein-pretreated cells to 5-FC / cell killing,[6]; washed,could not
same,cell death upon subsequent addition of 5-FC,[7],failed to induce cell death
same,cell killing (basal level),[8],< 10%
